94 variants from the supplement of paper PMC10567573 can be followed below.

The chains are these.
B1: DCAF4 (parent)
chain: DSHILLCLMGLAETPGCATLLPAS
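Also: lentivirally expressed fusions sorted by FACS into six bins by GFP to DsRed ratio, PSI derived from sequencing read proportions per bin multiplied by bin number.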

The series covers variants of B1. As to the kind of experiment: protein stability index of a GFP-peptide fusion (GPS, HEK-293T) (PSI 1-6); higher = more stable. The note with it: c terminus: a fixed tail appended.
With DHHILLCLMGLAETPGCATLLPAS [S2H], the protein stability index turned out to be 1.36.

Turning to DRHILLCLMGLAETPGCATLLPAS [S2R], the protein stability index is 2.46. The value for DNHILLCLMGLAETPGCATLLPAS [S2N] was 2.39; that for DQHILLCLMGLAETPGCATLLPAS [S2Q] was 3.81.

As to DTHILLCLMGLAETPGCATLLPAS [S2T], the protein stability index was found to be 2.09.

In the case of DIHILLCLMGLAETPGCATLLPAS [S2I], the protein stability index was found to be 2.04. For DAHILLCLMGLAETPGCATLLPAS [S2A] the value was 3.22; for DEHILLCLMGLAETPGCATLLPAS [S2E], 2.48.

For DLHILLCLMGLAETPGCATLLPAS [S2L], the protein stability index stood at 2.63. For DSHIALCLMGLAETPGCATLLPAS [L5A] the value was 1.77; for DSHIWLCLMGLAETPGCATLLPAS [L5W], 2.79; for DSHIQLCLMGLAETPGCATLLPAS [L5Q], 2.27. The value for DSHIYLCLMGLAETPGCATLLPAS [L5Y] was 2.77.

Turning to DSHIRLCLMGLAETPGCATLLPAS [L5R], the protein stability index stood at 1.44. For DSHITLCLMGLAETPGCATLLPAS [L5T] the value was 1.65; for DSHIPLCLMGLAETPGCATLLPAS [L5P], 3.06.

On to DSHIHLCLMGLAETPGCATLLPAS [L5H], for which the protein stability index came to 1.8. DSHIVLCLMGLAETPGCATLLPAS [L5V]: the protein stability index stood at 2.28. With DSHIDLCLMGLAETPGCATLLPAS [L5D], the protein stability index amounted to 2.09.

On to DSHIELCLMGLAETPGCATLLPAS [L5E], for which the protein stability index turned out to be 1.78. For DSHISLCLMGLAETPGCATLLPAS [L5S] the value was 1.78. The value for DSHINLCLMGLAETPGCATLLPAS [L5N] was 1.73.

On to DSHIKLCLMGLAETPGCATLLPAS [L5K], for which the protein stability index was 2.12. For DSHIGLCLMGLAETPGCATLLPAS [L5G] the value was 2.01; for DSHIFLCLMGLAETPGCATLLPAS [L5F], 1.59. Regarding DSHICLCLMGLAETPGCATLLPAS [L5C], the protein stability index stood at 2.07. The value for DSHILLQLMGLAETPGCATLLPAS [C7Q] was 1.8; that for DSHILLNLMGLAETPGCATLLPAS [C7N] was 2.08. The value for DSHILLYLMGLAETPGCATLLPAS [C7Y] was 3; that for DSHILLGLMGLAETPGCATLLPAS [C7G] was 2.32. For DSHILLDLMGLAETPGCATLLPAS [C7D] the value was 1.78; for DSHILLRLMGLAETPGCATLLPAS [C7R], 2.1; for DSHILLVLMGLAETPGCATLLPAS [C7V], 2.19. Consider DSHILLMLMGLAETPGCATLLPAS [C7M], for which the protein stability index is 2.11.

In the case of DSHILLALMGLAETPGCATLLPAS [C7A], the protein stability index amounted to 2.67. Consider DSHILLHLMGLAETPGCATLLPAS [C7H], for which the protein stability index stood at 2.9. For DSHILLSLMGLAETPGCATLLPAS [C7S] the value was 1.55. For DSHILLFLMGLAETPGCATLLPAS [C7F] the value was 2.76; for DSHILLPLMGLAETPGCATLLPAS [C7P], 2.47; for DSHILLWLMGLAETPGCATLLPAS [C7W], 3.65. For DSHILLELMGLAETPGCATLLPAS [C7E] the value was 1.7; for DSHILLILMGLAETPGCATLLPAS [C7I], 2.51; for DSHILLKLMGLAETPGCATLLPAS [C7K], 2.14. Turning to DSHYLLCLMGLAETPGCATLLPAS [I4Y], the protein stability index was determined as 2.33. For DSHCLLCLMGLAETPGCATLLPAS [I4C] the value was 2.15. For DSHTLLCLMGLAETPGCATLLPAS [I4T] the value was 1.93; for DSHMLLCLMGLAETPGCATLLPAS [I4M], 1.86; for DSHKLLCLMGLAETPGCATLLPAS [I4K], 2.2. For DSHSLLCLMGLAETPGCATLLPAS [I4S] the value was 1.82.

For the variant DSHGLLCLMGLAETPGCATLLPAS [I4G], the protein stability index worked out at 2.11. The value for DSHHLLCLMGLAETPGCATLLPAS [I4H] was 1.64; that for DSHQLLCLMGLAETPGCATLLPAS [I4Q] was 2.13. The value for DSHNLLCLMGLAETPGCATLLPAS [I4N] was 1.93. For DSHFLLCLMGLAETPGCATLLPAS [I4F] the value was 2.53; for DSHLLLCLMGLAETPGCATLLPAS [I4L], 2.96; for DSHDLLCLMGLAETPGCATLLPAS [I4D], 1.92. On to DSHPLLCLMGLAETPGCATLLPAS [I4P], for which the protein stability index came out at 1.86. The value for DSHVLLCLMGLAETPGCATLLPAS [I4V] was 3.46; that for DSHALLCLMGLAETPGCATLLPAS [I4A] was 1.67; that for DSHWLLCLMGLAETPGCATLLPAS [I4W] was 2.97. The value for DSHRLLCLMGLAETPGCATLLPAS [I4R] was 1.77. For DSHELLCLMGLAETPGCATLLPAS [I4E] the value was 1.99; for DSHILLCSMGLAETPGCATLLPAS [L8S], 1.69; for DSHILLCPMGLAETPGCATLLPAS [L8P], 2.5. For the variant DSHILLCKMGLAETPGCATLLPAS [L8K], the protein stability index was 2.02. For DSHILLCGMGLAETPGCATLLPAS [L8G] the value was 1.93. For DSHILLCWMGLAETPGCATLLPAS [L8W], the protein stability index is 2.07. For DSHILLCQMGLAETPGCATLLPAS [L8Q] the value was 1.95; for DSHILLCTMGLAETPGCATLLPAS [L8T], 1.97; for DSHILLCDMGLAETPGCATLLPAS [L8D], 3.14. The value for DSHILLCEMGLAETPGCATLLPAS [L8E] was 2.36; that for DSHILLCMMGLAETPGCATLLPAS [L8M] was 3.25; that for DSHILLCCMGLAETPGCATLLPAS [L8C] was 2.39.

Regarding DSHILLCNMGLAETPGCATLLPAS [L8N], the protein stability index is 2.58. In the case of DSHILLCRMGLAETPGCATLLPAS [L8R], the protein stability index worked out at 2.62. The value for DSHILLCAMGLAETPGCATLLPAS [L8A] was 1.96; that for DSHILLCYMGLAETPGCATLLPAS [L8Y] was 3.55. For the variant DSHILLCHMGLAETPGCATLLPAS [L8H], the protein stability index is 1.51. For DSYILLCLMGLAETPGCATLLPAS [H3Y] the value was 2.67; for DSPILLCLMGLAETPGCATLLPAS [H3P], 2.65.

DSKILLCLMGLAETPGCATLLPAS [H3K]: the protein stability index is 1.81. Turning to DSVILLCLMGLAETPGCATLLPAS [H3V], the protein stability index stood at 2.04. The value for DSGILLCLMGLAETPGCATLLPAS [H3G] was 3.24; that for DSRILLCLMGLAETPGCATLLPAS [H3R] was 3.45. For DSLILLCLMGLAETPGCATLLPAS [H3L] the value was 3.05. The value for DSDILLCLMGLAETPGCATLLPAS [H3D] was 2.49. Regarding DSNILLCLMGLAETPGCATLLPAS [H3N], the protein stability index stood at 3.2. In the case of DSAILLCLMGLAETPGCATLLPAS [H3A], the protein stability index was found to be 2.76.

With DSCILLCLMGLAETPGCATLLPAS [H3C], the protein stability index is 1.61. For DSEILLCLMGLAETPGCATLLPAS [H3E] the value was 2.27.

DSIILLCLMGLAETPGCATLLPAS [H3I]: the protein stability index was 3.85. For DSTILLCLMGLAETPGCATLLPAS [H3T] the value was 3.73. For DSQILLCLMGLAETPGCATLLPAS [H3Q] the value was 2.02; for DSWILLCLMGLAETPGCATLLPAS [H3W], 3.17.
